Assay [1] addresses β-synuclein (β-syn) peptide, 36 to 45 amino acids, all D type. Description: ITC. (In ITC the heat of successive injections is recorded.)
Assay [2] addresses α-synuclein monomer (not stated (mouse or human recombinant monomer bought)) (UniProt O55042). The assay is described as follows: MST.

Consider “α-synuclein preformed fibrils (α-syn PFF) (from UniProt O55042 1-140) (natural protein)”, for which the Kd – broadly, the constant that tells how readily two partners part at equilibrium – in assay [1] was found to be 0.386 µM.

For the substance “α-synuclein monomer (from UniProt O55042 1-140) (natural protein)”, in assay [2], the Kd was 43.8 µM.

Values taken from publication PMC11734722.
